Measurements as given in US20110064726A1.

Experiments:
[1] = molecular target: cynomolgus monkey IgE (cynomolgus monkey); assay: capture ELISA, antibody coated; Test 2, Cyno 2 serum
[2] = molecular target: cynomolgus monkey IgE (cynomolgus monkey); assay: capture ELISA, antibody coated; Test 2, Cyno 5 serum
[3] = molecular target: cynomolgus monkey IgE (cynomolgus monkey); assay: capture ELISA, antibody coated; Test 1, Cyno 2 serum
[4] = molecular target: cynomolgus monkey IgE (cynomolgus monkey); assay: capture ELISA, antibody coated; Test 2, Cyno 1 serum
[5] = molecular target: cynomolgus monkey IgE (cynomolgus monkey); assay: capture ELISA, antibody coated; Test 1, Cyno 1 serum
[6] = molecular target: cynomolgus monkey IgE (cynomolgus monkey); assay: capture ELISA, antibody coated; Test 2, Cyno 7 serum
[7] = molecular target: cynomolgus monkey IgE (cynomolgus monkey); assay: capture ELISA, antibody coated; Test 1, Cyno 7 serum
[8] = molecular target: cynomolgus monkey IgE (cynomolgus monkey); assay: capture ELISA, antibody coated; Test 2, Cyno 3 serum
[9] = molecular target: cynomolgus monkey IgE (cynomolgus monkey); assay: capture ELISA, antibody coated; Test 1, Cyno 3 serum
[10] = molecular target: cynomolgus monkey IgE (cynomolgus monkey); assay: capture ELISA, antibody coated; Test 1, Cyno 5 serum

E25 (omalizumab) (antibody) showed an IgE concentration detected [1] of 104 ng/mL, an IgE concentration detected [2] of 252 ng/mL and an IgE concentration detected [3] of 52 ng/mL. It also gave an IgE concentration detected [4] of 146 ng/mL, an IgE concentration detected [5] of 172 ng/mL and an IgE concentration detected [6] of 0 ng/mL. It also gave an IgE concentration detected [7] of 0 ng/mL, an IgE concentration detected [8] of 135 ng/mL and an IgE concentration detected [9] of 166 ng/mL. It also gave an IgE concentration detected [10] of 232 ng/mL.
